According to patent publication US20200270325A1 (Merck Sharp & Dohme, published 2020):
Numbered stars: 1 amine (or outer) side, 2 acyl side, 3 side chain; on linkers, the order of the positions; unused ones are H or OH. Square brackets hold non-standard residues; d marks the D form. Side chains are listed from the residue outwards. Ends that are not written are not given here. * marks the point of attachment. Phe(4-CH2NH2) = NCc1ccc(C[C@H](N)C(=O)O)cc1; C18 diacid = O=C(O)CCCCCCCCCCCCCCCCC(=O)*; C16 diacid = O=C(O)CCCCCCCCCCCCCCC(=O)*; γGlu = O=C(O)[C@H](CCC(=O)[*:2])N[*:1]; Met(O2) = CS(=O)(=O)CC[C@H](N)C(=O)O; αMeD = C[C@](N)(CC(=O)O)C(=O)O; αMeS = C[C@](N)(CO)C(=O)O; AEEA = NCCOCCOCC(=O)O; Aib = CC(C)(N)C(=O)O

What was measured:
[1] = molecular target: human Glucagon receptor (GCGR) (human, UniProt P47871 26-477); test: cell-based or functional assay
Sequence of human Glucagon receptor (GCGR) (P47871 26-477): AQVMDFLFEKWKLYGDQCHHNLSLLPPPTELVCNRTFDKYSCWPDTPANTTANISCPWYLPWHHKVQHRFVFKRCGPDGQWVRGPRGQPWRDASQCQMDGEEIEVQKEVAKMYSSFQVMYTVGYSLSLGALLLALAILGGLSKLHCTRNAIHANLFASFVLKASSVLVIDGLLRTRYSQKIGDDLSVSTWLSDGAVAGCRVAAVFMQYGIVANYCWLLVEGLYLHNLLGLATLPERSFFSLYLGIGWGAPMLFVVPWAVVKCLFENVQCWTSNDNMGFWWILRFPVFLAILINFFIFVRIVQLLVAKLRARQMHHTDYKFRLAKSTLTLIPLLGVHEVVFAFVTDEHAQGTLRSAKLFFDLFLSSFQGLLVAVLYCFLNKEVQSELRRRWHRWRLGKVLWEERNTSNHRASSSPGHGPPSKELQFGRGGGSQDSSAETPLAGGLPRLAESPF

[2] = molecular target: human GLP-1 receptor (GLP1R) (human, UniProt P43220 24-463); test: cell-based or functional assay

Binder | GCGR EC50 human [1] [nM] | GLP1R EC50 human [2] [nM]
H[Aib]QGTFTSDYSKYLD[Aib]RAAQFVQ[Phe(4-CH2NH2)]([AEEA-AEEA-γGlu-C16 diacid])WLLATK-{γGlu-NH2} [TP667] | > 19.8 | > 19.8
H[Aib]QGTFTSD[Phe(4-CH2NH2)]([AEEA-AEEA-γGlu-C16 diacid])SKYLD[Aib]RAAQDFVQWLL[αMeD]TK-{γGlu-NH2} [TP657] | 0.14 | 2.18
H[αMeS]QGTFTSD[Phe(4-CH2NH2)]([AEEA-AEEA-γGlu-C16 diacid])SKYLD[Aib]RAAQDFVQWLLATK-{γGlu-NH2} [TP660] | 4.54 | 3.59
H[Aib]QGTFTSDYSKYLDARAAQDFV[Phe(4-CH2NH2)]([γGlu-C18 diacid])WLLDT-NH2 (N-terminus assumed; SMILES CC(C)C[C@H](NC(=O)[C@H](Cc1ccc(O)cc1)NC(=O)[C@H](CCCCN)NC(=O)[C@H](CO)NC(=O)[C@H](Cc1ccc(O)cc1)NC(=O)[C@H](CC(=O)O)NC(=O)[C@H](CO)NC(=O)[C@@H](NC(=O)[C@H](Cc1ccccc1)NC(=O)[C@@H](NC(=O)CNC(=O)[C@H](CCC(N)=O)NC(=O)C(C)(C)NC(=O)[C@@H](N)Cc1c[nH]cn1)[C@@H](C)O)[C@@H](C)O)C(=O)N[C@@H](CC(=O)O)C(=O)N[C@@H](C)C(=O)N[C@@H](CCCNC(=N)N)C(=O)N[C@@H](C)C(=O)N[C@@H](C)C(=O)N[C@@H](CCC(N)=O)C(=O)N[C@@H](CC(=O)O)C(=O)N[C@@H](Cc1ccccc1)C(=O)N[C@H](C(=O)N[C@@H](Cc1ccc(CNC(=O)CC[C@H](NC(=O)CCCCCCCCCCCCCCCCC(=O)O)C(=O)O)cc1)C(=O)N[C@@H](Cc1c[nH]c2ccccc12)C(=O)N[C@@H](CC(C)C)C(=O)N[C@@H](CC(C)C)C(=O)N[C@@H](CC(=O)O)C(=O)N[C@H](C(N)=O)[C@@H](C)O)C(C)C) [TP639] | 3.38 | 2.09
H[Aib]QGTFTSDYSKYLD[Aib]RAAQ[Phe(4-CH2NH2)]([AEEA-AEEA-γGlu-C16 diacid])FVQWLLATK-{γGlu-NH2} [TP665] | 0.79 | 1.6
H[Aib]QGTFTSD[Phe(4-CH2NH2)]([AEEA-AEEA-γGlu-C20‑OH])SKYLD[Aib]RAAQDFVQWLLATK-{γGlu-NH2} [TP581] | 4.95 | 1.69
H[Aib]QGTFTSDYSKYLD[Aib]RAAQFVQK([AEEA-AEEA-γGlu-C16 diacid])WLLATK-{γGlu-NH2} [TP666] | > 19.8 | > 19.8
HXQGTFTSDXSKYLDXRAAQDFVQWLLAX (D-Ser (s) at 2; pAF(PEG2PEG2γEC16OH) at 10; Aib (U) at 16; KγE at 30-31 (γ-glutamic acid after Lys 30); C-terminal amide) [TP659] | 0.46 | > 4.9
H[Aib]QGTFTSDYSKYLEARAAK([AEEA-AEEA-γGlu-C18 diacid])DFVQWL[Met(O2)]DT-NH2 (N-terminus assumed; SMILES CC(C)C[C@H](NC(=O)[C@H](Cc1ccc(O)cc1)NC(=O)[C@H](CCCCN)NC(=O)[C@H](CO)NC(=O)[C@H](Cc1ccc(O)cc1)NC(=O)[C@H](CC(=O)O)NC(=O)[C@H](CO)NC(=O)[C@@H](NC(=O)[C@H](Cc1ccccc1)NC(=O)[C@@H](NC(=O)CNC(=O)[C@H](CCC(N)=O)NC(=O)C(C)(C)NC(=O)[C@@H](N)Cc1c[nH]cn1)[C@@H](C)O)[C@@H](C)O)C(=O)N[C@@H](CCC(=O)O)C(=O)N[C@@H](C)C(=O)N[C@@H](CCCNC(=N)N)C(=O)N[C@@H](C)C(=O)N[C@@H](C)C(=O)N[C@@H](CCCCNC(=O)COCCOCCNC(=O)COCCOCCNC(=O)CC[C@H](NC(=O)CCCCCCCCCCCCCCCCC(=O)O)C(=O)O)C(=O)N[C@@H](CC(=O)O)C(=O)N[C@@H](Cc1ccccc1)C(=O)N[C@H](C(=O)N[C@@H](CCC(N)=O)C(=O)N[C@@H](Cc1c[nH]c2ccccc12)C(=O)N[C@@H](CC(C)C)C(=O)N[C@@H](CCS(C)(=O)=O)C(=O)N[C@@H](CC(=O)O)C(=O)N[C@H](C(N)=O)[C@@H](C)O)C(C)C) [TP674] | 1.08 | 0.45
H[Aib]QGTFTSDYSKYLD[Aib]RAA[Phe(4-CH2NH2)]([AEEA-AEEA-γGlu-C16 diacid])DFVQWLLATK-{γGlu-NH2} [TP663] | 0.22 | 0.38
H[Aib]QGTFTSDYSKYLD[Aib]RAAK([AEEA-AEEA-γGlu-C18 diacid])DFVQWL[Met(O2)]ET-NH2 (N-terminus assumed; SMILES CC(C)C[C@H](NC(=O)[C@H](Cc1c[nH]c2ccccc12)NC(=O)[C@H](CCC(N)=O)NC(=O)[C@@H](NC(=O)[C@H](Cc1ccccc1)NC(=O)[C@H](CC(=O)O)NC(=O)[C@H](CCCCNC(=O)COCCOCCNC(=O)COCCOCCNC(=O)CC[C@H](NC(=O)CCCCCCCCCCCCCCCCC(=O)O)C(=O)O)NC(=O)[C@H](C)NC(=O)[C@H](C)NC(=O)[C@H](CCCNC(=N)N)NC(=O)C(C)(C)NC(=O)[C@H](CC(=O)O)NC(=O)[C@H](CC(C)C)NC(=O)[C@H](Cc1ccc(O)cc1)NC(=O)[C@H](CCCCN)NC(=O)[C@H](CO)NC(=O)[C@H](Cc1ccc(O)cc1)NC(=O)[C@H](CC(=O)O)NC(=O)[C@H](CO)NC(=O)[C@@H](NC(=O)[C@H](Cc1ccccc1)NC(=O)[C@@H](NC(=O)CNC(=O)[C@H](CCC(N)=O)NC(=O)C(C)(C)NC(=O)[C@@H](N)Cc1c[nH]cn1)[C@@H](C)O)[C@@H](C)O)C(C)C)C(=O)N[C@@H](CCS(C)(=O)=O)C(=O)N[C@@H](CCC(=O)O)C(=O)N[C@H](C(N)=O)[C@@H](C)O) [TP673] | 0.22 | 0.67
H[Aib]QGTFTSDYSKYLD[Aib]RAAK([AEEA-AEEA-γGlu-C16 diacid])DFVQWLLATK-{γGlu-NH2} [TP662] | 1.45 | 0.52
H[Aib]QGTFTSD[Phe(4-CH2NH2)]([AEEA-AEEA-γGlu-C16 diacid])SKYLD[Aib]RAAQDFVQWL[Met(O2)]ATK-{γGlu-NH2} [TP658] | 3.2 | 1.66
H[Aib]QGTFTSDYSKYLDARAAK([AEEA-AEEA-γGlu-C18 diacid])DFVQWL[Met(O2)]ET-NH2 (N-terminus assumed; SMILES CC(C)C[C@H](NC(=O)[C@H](Cc1ccc(O)cc1)NC(=O)[C@H](CCCCN)NC(=O)[C@H](CO)NC(=O)[C@H](Cc1ccc(O)cc1)NC(=O)[C@H](CC(=O)O)NC(=O)[C@H](CO)NC(=O)[C@@H](NC(=O)[C@H](Cc1ccccc1)NC(=O)[C@@H](NC(=O)CNC(=O)[C@H](CCC(N)=O)NC(=O)C(C)(C)NC(=O)[C@@H](N)Cc1c[nH]cn1)[C@@H](C)O)[C@@H](C)O)C(=O)N[C@@H](CC(=O)O)C(=O)N[C@@H](C)C(=O)N[C@@H](CCCNC(=N)N)C(=O)N[C@@H](C)C(=O)N[C@@H](C)C(=O)N[C@@H](CCCCNC(=O)COCCOCCNC(=O)COCCOCCNC(=O)CC[C@H](NC(=O)CCCCCCCCCCCCCCCCC(=O)O)C(=O)O)C(=O)N[C@@H](CC(=O)O)C(=O)N[C@@H](Cc1ccccc1)C(=O)N[C@H](C(=O)N[C@@H](CCC(N)=O)C(=O)N[C@@H](Cc1c[nH]c2ccccc12)C(=O)N[C@@H](CC(C)C)C(=O)N[C@@H](CCS(C)(=O)=O)C(=O)N[C@@H](CCC(=O)O)C(=O)N[C@H](C(N)=O)[C@@H](C)O)C(C)C) [TP672] | 0.35 | 0.51
H[Aib]QGTFTSDYSKYLD[Aib]RAAQDFVK([AEEA-AEEA-γGlu-C18 diacid])WL[Met(O2)]ET-NH2 (N-terminus assumed; SMILES CC(C)C[C@H](NC(=O)[C@H](Cc1c[nH]c2ccccc12)NC(=O)[C@H](CCCCNC(=O)COCCOCCNC(=O)COCCOCCNC(=O)CC[C@H](NC(=O)CCCCCCCCCCCCCCCCC(=O)O)C(=O)O)NC(=O)[C@@H](NC(=O)[C@H](Cc1ccccc1)NC(=O)[C@H](CC(=O)O)NC(=O)[C@H](CCC(N)=O)NC(=O)[C@H](C)NC(=O)[C@H](C)NC(=O)[C@H](CCCNC(=N)N)NC(=O)C(C)(C)NC(=O)[C@H](CC(=O)O)NC(=O)[C@H](CC(C)C)NC(=O)[C@H](Cc1ccc(O)cc1)NC(=O)[C@H](CCCCN)NC(=O)[C@H](CO)NC(=O)[C@H](Cc1ccc(O)cc1)NC(=O)[C@H](CC(=O)O)NC(=O)[C@H](CO)NC(=O)[C@@H](NC(=O)[C@H](Cc1ccccc1)NC(=O)[C@@H](NC(=O)CNC(=O)[C@H](CCC(N)=O)NC(=O)C(C)(C)NC(=O)[C@@H](N)Cc1c[nH]cn1)[C@@H](C)O)[C@@H](C)O)C(C)C)C(=O)N[C@@H](CCS(C)(=O)=O)C(=O)N[C@@H](CCC(=O)O)C(=O)N[C@H](C(N)=O)[C@@H](C)O) [TP675] | 0.3 | 0.71
